Source: PMC7954794, “Protein context shapes the specificity of SH3 domain-mediated interactions in vivo” (Nature Communications, 2021)

Tested on: PPIs identified as affected by the SH3 domain deletions
Assay: Liquid DHFR-PCA low-throughput validation of PPIs affected by SH3 deletion (Fig. S1D-E)
Format: cell-based, Saccharomyces cerevisiae
Conditions: label = prey, liquid DHFR-PCA, prey _1 = lost, _2 = gained in screen
Protocol: Liquid DHFR-PCA low-throughput experiments were performed to validate the PPIs identified as affected by the SH3 domain deletions in the high-throughput solid DHFR-PCA screen (256 PPIs weaker or lost and 116 PPIs stronger or gained following domain deletions). Mating and the diploid selection were performed as described for the large-scale experiment, with the exception that the plates were in 384 formats. Following the second diploid selection, diploid cells were inoculated in a 96 v-shaped well plate using a robotically manipulated 96 pin tool in a synthetic complete medium with MSG at pH 6.0 with NAT and HPH. After 48 h of growth, optical density (OD) was read using a TECAN Infinite F200 Pro, and dilutions to 1 OD in sterile nanopure water were prepared. Cells were then diluted to 0.1 OD by combining 25 µl of cell suspension at OD = 1 and 225 µl of PCA selection media without agar in a 96-wells plate. Plates were incubated at 30 °C in a TECAN Infinite M Nano and OD was monitored each 15 min for 72 h.

B1: YKL117W_2 (protein, UniProt P28707 2-216, looked up)
Co-chaperone protein SBA1: SDKVINPQVAWAQRSSTTDPERNYVLITVSIADCDAPELTIKPSYIELKAQSKPHVGDENVHHYQLHIDLYKEIIPEKTMHKVANGQHYFLKLYKKDLESEYWPRLTKEKVKYPYIKTDFDKWVDEDEQDEVEAEGNDAAQGMDFSQMMGGAGGAGGAGGMDFSQMMGGAGGAGSPDMAQLQQLLAQSGGNLDMGDFKENDEEDEEEEIEPEVKA
Bait ABP1
  Ratio (Deletedscore / WTscore): 1.066
Bait BZZ1-2
  Ratio (Deletedscore / WTscore): 1.596
Bait LSB3
  Ratio (Deletedscore / WTscore): 1.715
Bait RVS167
  Ratio (Deletedscore / WTscore): 1.422

B2: YBL007C_1 (protein, UniProt P32790 1-1244, looked up)
Actin cytoskeleton-regulatory …: MTVFLGIYRAVYAYEPQTPEELAIQEDDLLYLLQKSDIDDWWTVKKRVIGSDSEEPVGLVPSTYIEEAPVLKKVRAIYDYEQVQNADEELTFHENDVFDVFDDKDADWLLVKSTVSNEFGFIPGNYVEPENGSTSKQEQAPAAAEAPAATPAAAPASAAVLPTNFLPPPQHNDRARMMQSKEDQAPDEDEEGPPPAMPARPTATTETTDATAAAVRSRTRLSYSDNDNDDEEDDYYYNSNSNNVGNHEYNTEYHSWNVTEIEGRKKKKAKLSIGNNKINFIPQKGTPHEWSIDKLVSYDNEKKHMFLEFVDPYRSLELHTGNTTTCEEIMNIIGEYKGASRDPGLREVEMASKSKKRGIVQYDFMAESQDELTIKSGDKVYILDDKKSKDWWMCQLVDSGKSGLVPAQFIEPVRDKKHTESTASGIIKSIKKNFTKSPSRSRSRSRSKSNANASWKDDELQNDVVGSAAGKRSRKSSLSSHKKNSSATKDFPNPKKSRLWVDRSGTFKVDAEFIGCAKGKIHLHKANGVKIAVAADKLSNEDLAYVEKITGFSLEKFKANDGSSSRGTDSRDSERERRRRLKEQEEKERDRRLKERELYELKKARELLDEERSRLQEKELPPIKPPRPTSTTSVPNTTSVPPAESSNNNNSSNKYDWFEFFLNCGVDVSNCQRYTINFDREQLTEDMMPDINNSMLRTLGLREGDIVRVMKHLDKKFGRENIASIPTNATGNMFSQPDGSLNVATSPETSLPQQLLPQTTSPAQTAPSTSAETDDAWTVKPASKSESNLLSKKSEFTGSMQDLLDLQPLEPKKAAASTPEPNLKDLEPVKTGGTTVPAAPVSSAPVSSAPAPLDPFKTGGNNILPLSTGFVMMPMITGGDMLPMQRTGGFVVPQTTFGMQSQVTGGILPVQKTGNGLIPISNTGGAMMPQTTFGAAATVLPLQKTGGGLIPIATTGGAQFPQTSFNVQGQQQLPTGSILPVQKTANGLISANTGVSMPTVQRTGGTMIPQTSFGVSQQLTGGAMMTQPQNTGSAMMPQTSFNAVPQITGGAMMPQTSFNALPQVTGGAMMPLQRTGGALNTFNTGGAMIPQTSFSSQAQNTGGFRPQSQFGLTLQKTGGIAPLNQNQFTGGAMNTLSTGGVLQQQQPQTMNTFNTGGVMQELQMMTTFNTGGAMQQPQMMNTFNTDGIMQQPQMMNTFNTGGAMQQPQQQALQNQPTGFGFGNGPQQSRQANIFNATASNPFGF
Bait BBC1
  Ratio (Deletedscore / WTscore): 0.5353
Bait LSB1
  Ratio (Deletedscore / WTscore): 0.9074
Bait MYO3
  Ratio (Deletedscore / WTscore): 0.6734
Bait MYO5
  Ratio (Deletedscore / WTscore): 0.8649
Bait PIN3
  Ratio (Deletedscore / WTscore): 0.824

B3: YPR055W_1 (protein, UniProt P32855 1-1065, looked up)
Exocyst complex component SEC8: MDYLKPAQKGRRRGLSINSLSETQQSAMNSSLDHLQNDLNRINLQWNRILSDNTNPLELALAFLDDTSVGLGHRYEEFNQLKSQIGSHLQDVVNEHSQVFNTNVASYGKAVSSIMQAQEQTLNLKNCLKEANEKITTDKGSLQELNDNNLKYTKMIDVLVNIEELLQIPEKIEENIRKENFHQVQILLERGFILMNNKSLKTVEILKPINQQLELQEHLLFNNLIEEIHDIMYSKSNKTNFTRVTNNDIFKIISISHNGFTSLENYLYNIVNIDIMEHSKTINKNLEQFIHDQSLNKGNIMLQENAATQAPLAPSRNQENEGFNRIGFLLKTINNINKLPVAFNIITERAKEEIHNIIVKSTESIRSKHPSLLKMATSLKNDNHFGLPVQDILSIILRECFWEIFLKLLYAIQCHRAIFEMSNILQPTSSAKPAFKFNKIWGKLLDEIELLLVRYINDPELISSNNGSIKPINGATNNAPTLPKRKNPKIFSLEYNIEDNSSVKDQAFELKALLKDIFPGFSVSSNMDLDSIYVKDESFEQDEPLVPPSVFNMKVILDPFLLFTQSTSTIVPSVLTQNTISSLTFFDDYMNKSFLPKIQMTMDYLFTVEVESNNPYALELSDENHNIFKTALDFQRLFYNLLNVFNTANTFREKISYCILDLLNHFYNYYLGLFNSLIGTSDRHLTRKIITAWLQNGILMDQEQKILNGDETLFHEESIELFKEIPHFYQAGKGLSKSDLFNNLTLDTILQFSASVLWILNWLPGLKKAINIDEVSQEPMLDADRLRSSWTFSESMDLNYSNPSSSPNSLGNLKILLDDKASKKFDETIDGFKTLKFKLITILRFNIRALCIYDIGSFFQNTKIWNMDVGSIELDQNIASLISELRRTESKLKQQLPEKEKNSIFIGLDIVNNYALIKGAKSIKVLNHNGIKKMLRNVNVLQHAYRNLSSEPSKINMNVTMNFYSLCGSSEAELFEYIKDNELPHCSVEDLKTILRLQFSEEMHRQLKRQSTSSTKGSIKPSNKRYTEALEKLSNLEKEQSKEGARTKIGKLKSKLNAVHTANEK
Bait ABP1
  Ratio (Deletedscore / WTscore): 0.936
Bait BEM1-1
  Ratio (Deletedscore / WTscore): 1.037
Bait BEM1-2
  Ratio (Deletedscore / WTscore): 0.6358
Bait LSB3
  Ratio (Deletedscore / WTscore): 0.783

B4: YGL099W_1 (protein, UniProt P53145 1-640, looked up)
Large subunit GTPase 1: MPPKEAPKKWKAPKGPKPTHRKNKNKLELGRAIKYARQKENAIEYLPDGEMRFTTDKHEANWVKLRSVTQESALDEFLSTAALADKDFTADRHSNVKIIRMDSGNDSATSQGFSMTNEQRGNLNAKQRALAKDLIVPRRPEWNEGMSKFQLDRQEKEAFLEWRRKLAHLQESNEDLLLTPFERNIEVWKQLWRVVERSDLVVQIVDARNPLLFRSVDLERYVKESDDRKANLLLVNKADLLTKKQRIAWAKYFISKNISFTFYSALRANQLLEKQKEMGEDYREQDFEEADKEGFDADEKVMEKVKILSIDQLEELFLSKAPNEPLLPPLPGQPPLINIGLVGYPNVGKSSTINSLVGAKKVSVSSTPGKTKHFQTIKLSDSVMLCDCPGLVFPNFAYNKGELVCNGVLPIDQLRDYIGPAGLVAERIPKYYIEAIYGIHIQTKSRDEGGNGDIPTAQELLVAYARARGYMTQGYGSADEPRASRYILKDYVNGKLLYVNPPPHLEDDTPYTREECEEFNKDLYVFDRLPDTRKEQVQNAAKAKGIDIVDLARDLNQLTFSAHTGGDTQKEAKSVTHGGKQAALYNAAEDLDRDFFKMNNVEGRLSTPFHKVQNSSAGKRHNKKNKSKNAKSKVFSIENN
Bait ABP1
  Ratio (Deletedscore / WTscore): 1.003

B5: YFL010C_1 (protein, UniProt P43582 1-211, looked up)
WW domain-containing protein …: MAQSKSNPPQVPSGWKAVFDDEYQTWYYVDLSTNSSQWEPPRGTTWPRPKGPPPGVNNEKSSRQQADQAPPPYSSQSTPQVQAGAQAQQPRYYQPQQPQYPQYPQQQRYYPQQAPMPAAAPQQAYYGTAPSTSKGSGHGGAMMGGLLGVGAGLLGGAMLEHAFDDHNYDGPDTVVVENNYYGDDAGGSDGGFDDAGGFDGGFDDGFDGSDF
Bait BBC1
  Ratio (Deletedscore / WTscore): 0.6877

B6: YNL094W_1 (protein, UniProt P53933 1-587, looked up)
Phosphatidate phosphatase APP1: MNSQGYDESSSSTAATSGPTSGDPRMGKKQRFMNLIRTTKDVYIPNLTSSISQKTMDGIRSTTNSFEGYNDLPMELPHNTTITYFPTYTTTNLVDPDGLSAPRKDFETTVRCAVSYPGNPTSRRNRWLLSLCKQYLRTGTAEADVAPVVPPHLEEDSGDLNDSQSSIESSLSSKSENRYSHMGIQEEDVLNERIQGFLSKKVPNTPVVVDLLPKDKLRGDTASFFGTTDSYGNLLIKAETDFLPSKINITLDTPIEGHADPISETFPANYVSPYGIGLISDIDDTIKHTGVTGDRRSMFRNVFIHDVQSWVIDGVPLWYKTLHDVADVDFFYVSNSPIQTFTLLKQYICANFPPGPIFLKQYSGNFFSTIMTSSANRKIQPIANILKDFPKKKFILVGDSGEHDLEAYTTTALQFPNQILAIYIRCCSNSMSDVPSHDEEVMNEVNNIIELQQRPMQMTKSTVRTRRRPPPPPIPSTQKPSLTEEQTESIRMSRRNKDENNAKRVAPPPLPNRQLPNLDANTYYVPSSQNDYGMYGAFMDKKADEWKRRVMDSIQKLSNQDTTLMFFSDPALSLEDSIRRIREKYSN
Bait ABP1
  Ratio (Deletedscore / WTscore): 0.4956

B7: YOR284W_1 (protein, UniProt Q12134 1-243, looked up)
Protein HUA2: MQQTKFGKMYLDHDSVVEYSEDEIVEADRITLGYKKRLSMIENQMRHLLEDFSLDVQQIEPILADLQKYYDAFLQLLQKRNKSLQCKRSTHQPVPSPMNSQTSTNAKVNLSGKLMKFQLNSVQKFDEENILRILQNKIEFEHYFQIDKGKKQKVLLLAVYQCLNGPTRLHKVLNIEGIIHNNSIRTILGKQVSSSKWTVFLYDVKLVLLAHRQDVPNLETSKMIVRYGDLFPCALYFKDHTAY
Bait ABP1
  Ratio (Deletedscore / WTscore): 0.3885
